The record followed here is US20110009310A1 (CELECURE, published 2011).

The target of assay [1] is VEGFR1 (isolated recombinant receptor) (UniProt P17948 27-756, limits assumed). Put plainly: modified ELISA; CD44-3MUT coated on wells, recombinant VEGFR1 added, detected with anti-VEGFR antibody. On the procedure: (§1) Modified ELISA tests to evaluate the binding of VEGFR2 (panel A) and VEGFR1 (panel B) to immobilized CD44-3MUT. […] Nonspecific binding was blocked with 2.5% non-fat dry milk solution. VEGFR1 and VEGFR2 were added into the coated wells and incubated for 1 h at RT. VEGFR binding was detected with anti-VEGFR antibodies
VEGFR1 (isolated recombinant receptor), sequence (P17948 27-756 limits assumed): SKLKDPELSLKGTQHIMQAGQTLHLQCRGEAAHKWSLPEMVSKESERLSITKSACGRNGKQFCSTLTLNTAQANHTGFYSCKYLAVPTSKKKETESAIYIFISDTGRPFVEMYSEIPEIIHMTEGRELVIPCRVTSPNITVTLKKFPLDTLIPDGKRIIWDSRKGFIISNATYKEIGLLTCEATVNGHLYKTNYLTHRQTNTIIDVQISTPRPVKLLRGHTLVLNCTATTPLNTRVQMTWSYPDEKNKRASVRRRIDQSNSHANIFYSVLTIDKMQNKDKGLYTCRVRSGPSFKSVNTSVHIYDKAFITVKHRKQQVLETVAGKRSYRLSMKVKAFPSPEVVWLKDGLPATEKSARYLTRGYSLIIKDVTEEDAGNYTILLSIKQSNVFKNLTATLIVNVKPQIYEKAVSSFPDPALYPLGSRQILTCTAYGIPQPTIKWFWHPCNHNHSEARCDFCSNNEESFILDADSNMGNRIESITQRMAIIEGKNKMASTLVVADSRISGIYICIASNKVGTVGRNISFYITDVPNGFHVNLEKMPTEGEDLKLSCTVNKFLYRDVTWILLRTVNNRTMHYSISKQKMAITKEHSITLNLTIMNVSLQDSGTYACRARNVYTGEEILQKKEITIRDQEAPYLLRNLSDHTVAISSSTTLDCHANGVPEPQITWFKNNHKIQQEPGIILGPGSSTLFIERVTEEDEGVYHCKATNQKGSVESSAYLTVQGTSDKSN
(§2) We have developed a modified ELISA test (to detect CD44-3MUT binding specificity to isolated recombinant receptors VEGFR1 and VEGFR2).
On the technique in general: In an ELISA, binding on a coated surface is turned into a signal by an enzyme label.

For assay [2], the target named is VEGFR2 (isolated recombinant receptor) (UniProt P35968 20-764, limits assumed). Put plainly: modified ELISA; CD44-3MUT coated on wells, recombinant VEGFR2 added, detected with anti-VEGFR antibody. On the procedure: as §1, §2
VEGFR2 (isolated recombinant receptor), sequence (P35968 20-764 limits assumed): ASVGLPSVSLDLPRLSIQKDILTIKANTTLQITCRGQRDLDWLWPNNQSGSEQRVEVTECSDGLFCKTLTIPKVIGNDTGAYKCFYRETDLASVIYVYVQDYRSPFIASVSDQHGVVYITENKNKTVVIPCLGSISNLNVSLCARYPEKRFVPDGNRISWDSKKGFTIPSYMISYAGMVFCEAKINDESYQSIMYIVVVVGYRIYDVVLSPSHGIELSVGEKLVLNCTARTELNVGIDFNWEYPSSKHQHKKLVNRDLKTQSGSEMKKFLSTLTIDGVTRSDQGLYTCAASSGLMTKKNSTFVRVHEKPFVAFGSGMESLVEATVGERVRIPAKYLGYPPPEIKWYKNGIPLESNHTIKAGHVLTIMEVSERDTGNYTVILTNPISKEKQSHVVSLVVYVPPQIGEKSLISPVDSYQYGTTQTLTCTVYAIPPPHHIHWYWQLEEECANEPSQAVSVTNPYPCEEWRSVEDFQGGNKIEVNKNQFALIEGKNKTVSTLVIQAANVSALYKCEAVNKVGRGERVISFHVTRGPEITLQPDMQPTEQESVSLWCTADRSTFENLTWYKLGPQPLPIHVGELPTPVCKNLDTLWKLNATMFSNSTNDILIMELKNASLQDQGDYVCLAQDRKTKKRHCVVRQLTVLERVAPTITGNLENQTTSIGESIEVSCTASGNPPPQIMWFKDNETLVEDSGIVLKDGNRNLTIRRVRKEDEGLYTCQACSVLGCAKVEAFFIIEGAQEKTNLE

B1: CD44HABD^R41AR78SY79S (non-HA-binding triple mutant of the human CD44 hyaluronic acid binding domain) (other)
chain: QIDLNMTCRFAGVFHVEKNGAYSISRTEAADLCKAFNSTLPTMAQMEKALSIGFETCSSGFIEGHVVIPRIHPNSICAANNTGVYILTSNTSQYDTYCFNASAPPEEDCTSV
notes: Made in E. coli, non-glycosylated; also called CD44-3MUT; 3MUT
Regarding B1, the binding result in assay [1] and in assay [2] was “no binding” throughout.
